Results taken from article PMC5891081.

T1: RAD52 wild type (Homo sapiens, UniProt P43351 1-418)
T1 sequence: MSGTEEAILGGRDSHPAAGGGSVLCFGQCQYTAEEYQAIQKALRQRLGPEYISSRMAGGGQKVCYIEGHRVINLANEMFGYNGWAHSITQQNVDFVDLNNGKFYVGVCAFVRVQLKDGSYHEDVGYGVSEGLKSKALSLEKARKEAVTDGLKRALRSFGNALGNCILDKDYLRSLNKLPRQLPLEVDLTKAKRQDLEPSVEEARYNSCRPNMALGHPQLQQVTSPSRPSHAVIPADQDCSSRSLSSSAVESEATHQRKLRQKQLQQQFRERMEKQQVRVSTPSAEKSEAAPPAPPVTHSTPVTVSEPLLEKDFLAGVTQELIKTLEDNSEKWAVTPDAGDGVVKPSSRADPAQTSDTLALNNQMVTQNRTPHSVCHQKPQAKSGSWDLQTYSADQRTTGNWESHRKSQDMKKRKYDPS


Columns and labels:
[1] = target: GAL4-DBD-fused RAD52 (10xQ) (human) (UniProt P43351); test: two-hybrid; yeast; GAL4 DBD-fused RAD52 with NLS-GAL4 AD fusions; lacZ reporter, liquid beta-galactosidase assay, activity relative to RAD52 (Wt)
RAD52 wild type = target: T1, RAD52 wild type; test: EMSA; 10 uM nucleotides DNA; 16 uL reactions, Cy5-50-mer 10 uM in nucleotides; 5X buffer contains 0.1 M HEPES-NaOH pH 7.5 (20 mM final if 1X); remaining components, salt and temperature cut off in the material; settings: protein: recombinant; tags: C-terminal His6 construct (pET21a) or pET15b construct; label: 5'-Cy5; single strand, 50 nt

| Molecule | fold change of beta-galactosidase activity against RAD52 (Wt) [1] | binding result (RAD52 wild type) |
| --- | --- | --- |
| GAL4-DBD-fused RAD52 (10xQ) (from UniProt P43351 1-418) (natural protein) | 1.7 fold | – |
| TCGCCATCAACTAACGATTCTGTCAAAAACTGACGCGTTGGATGAGGAGA (ssDNA) [FX174-50-1 (oligo 1)] | – | binds |
